{"source": "patent US5932697A", "about": "“Synthetic antifreeze peptide” (Virginia Tech Intellectual Properties, Inc., priority 1991, dated 1999)", "molecules": {"B1": {"name": "WF8R: synthetic 98 amino acid antifreeze peptide with eight eleven-amino-acid repeats, modeled on winter flounder AFP, expressed in E. coli (protein)", "chain": "MSTASDAAAAAAATAATAAAAAAATAATAAAAAAATAATAAAAAAATAATAAAAAAATAATAAAAAAATAATAAKAAALTAANAAAAAAATAAAAARG"}}, "test_system": "JM109 (DE3)", "assay": "Studies of cell viability in strains expressing WF8R fusion proteins", "format": "cell-based, E. coli", "settings": "JM109 (DE3) [pX28] or [pX284], intracellular expression as P10 fusion; applicants' conclusion from cell viability studies", "description": "The pX28 and pX284 were transformed into JM109 (DE3). The proteins produced in either the JM109 (DE3) [pX28] or in the JM109 (DE3) [pX284] after induction by IPTG in mid- or late-logarithmic growth phase, have been analyzed by sodium dodecyl sulfate (SDS)--polyacrylamide gel electrophoresis (SDS-PAGE). […] Studies of cell viability in these strains have shown that both strains are adversely affected with respect to growth and stability of the plasmid (these effects were more pronounced in the pX28 harboring strain). […] To avert this problem the applicants decided to protect the fusion protein from intracellular degradation, as well as to protect the cells from the toxicity of WF8R, by adding to the fusion a C-terminal end derived from E. coli β-galactosidase."}
{"molecule": "B1", "values": [{"measurement": "toxicity to the cells (growth and stability of the plasmid adversely affected)", "value": "toxic to the cells"}]}
